This note sets out measurements from article PMC10786891, “Massively parallel profiling of RNA-targeting CRISPR-Cas13d”.

Residue numbers refer to the chain shown, from its start. Numbers in names are those of the source.

The labels stand for the following.
T1: EsCas13d, nuclease-dead (Eubacterium siraeum, UniProt B0MS50, R295A;H300A;R849A;H854A)
T1 sequence: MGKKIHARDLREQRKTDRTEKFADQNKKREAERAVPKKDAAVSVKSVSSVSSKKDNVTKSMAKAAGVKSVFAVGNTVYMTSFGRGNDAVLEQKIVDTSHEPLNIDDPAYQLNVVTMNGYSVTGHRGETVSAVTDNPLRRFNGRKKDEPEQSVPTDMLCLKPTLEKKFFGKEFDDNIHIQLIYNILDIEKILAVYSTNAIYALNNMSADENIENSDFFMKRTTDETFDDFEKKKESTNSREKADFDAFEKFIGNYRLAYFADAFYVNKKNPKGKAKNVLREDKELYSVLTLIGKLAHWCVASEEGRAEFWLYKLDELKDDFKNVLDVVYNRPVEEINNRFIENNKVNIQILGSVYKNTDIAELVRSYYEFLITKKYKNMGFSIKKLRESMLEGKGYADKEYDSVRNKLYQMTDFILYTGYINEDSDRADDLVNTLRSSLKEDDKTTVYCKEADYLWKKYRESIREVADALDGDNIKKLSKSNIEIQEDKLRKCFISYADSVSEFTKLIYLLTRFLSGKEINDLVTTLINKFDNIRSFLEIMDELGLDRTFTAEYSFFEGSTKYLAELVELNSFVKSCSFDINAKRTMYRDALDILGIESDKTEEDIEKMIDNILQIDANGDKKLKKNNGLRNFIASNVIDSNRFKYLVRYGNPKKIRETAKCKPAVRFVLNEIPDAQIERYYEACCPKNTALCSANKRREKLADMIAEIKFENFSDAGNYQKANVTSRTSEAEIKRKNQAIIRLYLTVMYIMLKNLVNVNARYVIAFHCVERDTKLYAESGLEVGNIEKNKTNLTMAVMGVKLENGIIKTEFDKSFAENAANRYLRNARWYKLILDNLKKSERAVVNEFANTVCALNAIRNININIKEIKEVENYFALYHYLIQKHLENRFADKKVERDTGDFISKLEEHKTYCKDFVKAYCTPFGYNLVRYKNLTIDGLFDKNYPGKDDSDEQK

B1: target 2 MT 5'PFS UGC 3'PFS CUA (mixed)
RNA 1: CACCCGUGCAAAAUUGCAGGGGUCUAAAACCUUCUCCAAAUUGUUUCAUCCU
RNA 2: GGGAAUGGAUCCACAUCUACGAAUUCUGCAGGAUGAAACAAUUUGGAGAAGCUAAGAUCGGAAGAGCACACGU
B2: target 2 MT 5'PFS ACG 3'PFS AAC (mixed)
RNA 1: B1 RNA 1
RNA 2: B1 RNA 2 with U27A, G28C, C29G, C52A, U53A, A54C
B3: target 2 MT 5'PFS AUC 3'PFS AGA (mixed)
RNA 1: B1 RNA 1
RNA 2: B1 RNA 2 with U27A, G28U, C52A, U53G
B4: target 2 MT 5'PFS ACG 3'PFS AAU (mixed)
RNA 1: B1 RNA 1
RNA 2: B1 RNA 2 with U27A, G28C, C29G, C52A, U53A, A54U
B5: target 2 MT 5'PFS AUG 3'PFS CUC (mixed)
RNA 1: B1 RNA 1
RNA 2: B1 RNA 2 with U27A, G28U, C29G, A54C
B6: target 2 MT 5'PFS ACU 3'PFS UAA (mixed)
RNA 1: B1 RNA 1
RNA 2: B1 RNA 2 with U27A, G28C, C29U, C52U, U53A
B7: target 2 MT 5'PFS CUC 3'PFS AGU (mixed)
RNA 1: B1 RNA 1
RNA 2: B1 RNA 2 with U27C, G28U, C52A, U53G, A54U
B8: target 2 MT 5'PFS GGC 3'PFS ACU (mixed)
RNA 1: B1 RNA 1
RNA 2: B1 RNA 2 with U27G, C52A, U53C, A54U
B9: target 2 MT 5'PFS AUG 3'PFS CUA (mixed)
RNA 1: B1 RNA 1
RNA 2: B1 RNA 2 with U27A, G28U, C29G
B10: target 2 MT 5'PFS CAC 3'PFS AAA (mixed)
RNA 1: B1 RNA 1
RNA 2: B1 RNA 2 with U27C, G28A, C52A, U53A
B11: target 2 MT 5'PFS UGC 3'PFS CUG (mixed)
RNA 1: B1 RNA 1
RNA 2: B1 RNA 2 with A54G
B12: target 2 MT 5'PFS AUG 3'PFS CUU (mixed)
RNA 1: B1 RNA 1
RNA 2: B1 RNA 2 with U27A, G28U, C29G, A54U
B13: target 2 MT 5'PFS ACU 3'PFS UAC (mixed)
RNA 1: B1 RNA 1
RNA 2: B1 RNA 2 with U27A, G28C, C29U, C52U, U53A, A54C
B14: target 2 MT 5'PFS UGC 3'PFS CUU (mixed)
RNA 1: B1 RNA 1
RNA 2: B1 RNA 2 with A54U
B15: target 2 MT 5'PFS UGC 3'PFS CUC (mixed)
RNA 1: B1 RNA 1
RNA 2: B1 RNA 2 with A54C
B16: target 2 MT 5'PFS GUU 3'PFS UAC (mixed)
RNA 1: B1 RNA 1
RNA 2: B1 RNA 2 with U27G, G28U, C29U, C52U, U53A, A54C
B17: target 2 MT 5'PFS UCU 3'PFS ACU (mixed)
RNA 1: B1 RNA 1
RNA 2: B1 RNA 2 with G28C, C29U, C52A, U53C, A54U
B18: target 2 MT 5'PFS GGC 3'PFS ACA (mixed)
RNA 1: B1 RNA 1
RNA 2: B1 RNA 2 with U27G, C52A, U53C
B19: target 2 MT 5'PFS CUC 3'PFS AGG (mixed)
RNA 1: B1 RNA 1
RNA 2: B1 RNA 2 with U27C, G28U, C52A, U53G, A54G
B20: target 2 MT 5'PFS CUC 3'PFS AGA (mixed)
RNA 1: B1 RNA 1
RNA 2: B1 RNA 2 with U27C, G28U, C52A, U53G
B21: target 2 MT 5'PFS AUC 3'PFS AGC (mixed)
RNA 1: B1 RNA 1
RNA 2: B1 RNA 2 with U27A, G28U, C52A, U53G, A54C
B22: target 2 MT 5'PFS GGC 3'PFS ACG (mixed)
RNA 1: B1 RNA 1
RNA 2: B1 RNA 2 with U27G, C52A, U53C, A54G
B23: target 2 MT 5'PFS ACU 3'PFS UAU (mixed)
RNA 1: B1 RNA 1
RNA 2: B1 RNA 2 with U27A, G28C, C29U, C52U, U53A, A54U
B24: target 2 MT 5'PFS CAC 3'PFS AAC (mixed)
RNA 1: B1 RNA 1
RNA 2: B1 RNA 2 with U27C, G28A, C52A, U53A, A54C
B25: target 2 MT 5'PFS GUA 3'PFS GCC (mixed)
RNA 1: B1 RNA 1
RNA 2: B1 RNA 2 with U27G, G28U, C29A, C52G, U53C, A54C
B26: target 2 MT 5'PFS GUU 3'PFS UAU (mixed)
RNA 1: B1 RNA 1
RNA 2: B1 RNA 2 with U27G, G28U, C29U, C52U, U53A, A54U
B27: target 2 MT 5'PFS CUC 3'PFS AGC (mixed)
RNA 1: B1 RNA 1
RNA 2: B1 RNA 2 with U27C, G28U, C52A, U53G, A54C
B28: target 2 MT 5'PFS GUA 3'PFS GCG (mixed)
RNA 1: B1 RNA 1
RNA 2: B1 RNA 2 with U27G, G28U, C29A, C52G, U53C, A54G
B29: target 2 MT 5'PFS ACU 3'PFS UAG (mixed)
RNA 1: B1 RNA 1
RNA 2: B1 RNA 2 with U27A, G28C, C29U, C52U, U53A, A54G
B30: target 2 MT 5'PFS ACG 3'PFS AAG (mixed)
RNA 1: B1 RNA 1
RNA 2: B1 RNA 2 with U27A, G28C, C29G, C52A, U53A, A54G
B31: target 2 MT 5'PFS UCG 3'PFS UGU (mixed)
RNA 1: B1 RNA 1
RNA 2: B1 RNA 2 with G28C, C29G, C52U, U53G, A54U
B32: target 2 MT 5'PFS UAU 3'PFS GGC (mixed)
RNA 1: B1 RNA 1
RNA 2: B1 RNA 2 with G28A, C29U, C52G, U53G, A54C
B33: target 2 MT 5'PFS GUU 3'PFS UAA (mixed)
RNA 1: B1 RNA 1
RNA 2: B1 RNA 2 with U27G, G28U, C29U, C52U, U53A
B34: target 1 insA 3' of 21,insU 3' of 6 (mixed)
RNA 1: CACCCGUGCAAAAAUGCAGGGGUCUAAAACUGAGCGGAUAACCUCUCUAUGG
RNA 2: GGGAAUGGAUCCACAUCUACGAAUUCGUACCAAUAGAGAGGUUAUCCUGCUCACCGAGAUCGGAAGAGCACACGU
B35: target 1 C2U,A9U (mixed)
RNA 1: B34 RNA 1
RNA 2: GGGAAUGGAUCCACAUCUACGAAUUCGUACCAUAGAGAGGUUUUCCGCUUACCGAGAUCGGAAGAGCACACGU
B36: target 1 A9C,G15U (mixed)
RNA 1: B34 RNA 1
RNA 2: B35 RNA 2 with G37U, U43C, U50C

For the data set, the target named is T1, EsCas13d, nuclease-dead. Nature of the data set: crRNA (strand 1, pre-loaded); Mg2+; 40 mM Tris-HCl pH 7.5, 150 mM NaCl, 6 mM MgCl2, 1 mM DTT, 0.1% Tween-20, 0.2 mg/ml BSA; 25 C; 10 min per concentration, then washed. As to conditions: tags: His6-TwinStrep-SUMO cleaved; N-terminal SNAP kept (SNAP-Surface 488); label: 3' end held by stalled T7 RNA polymerase.
With B1, the Kd – broadly, a measure of binding affinity in units of concentration – is 0.016 ± 0.006 µM. In turn, B2 showed a Kd of 0.0055 ± 0.0012 µM. B3 displayed a Kd of about 0.08 µM.

Molecule B4 had a Kd of 0.0054 ± 0.0013 µM. Consider B5, for which binding was put at a Kd of 0.016 ± 0.005 µM.

In turn, B6 came in with a dissociation constant (Kd) of 0.004 ± 0.0009 µM. Under B7 stands 0.0035 ± 0.0008 µM; under B8, 0.0213 ± 0.0025 µM. Take B9: binding was put at a Kd of 0.0075 ± 0.0009 µM.

For B10, the Kd is 0.00171 ± 0.0003 µM. Compared with the last molecule, the Kd is about 4.4-fold lower. For B11, the Kd worked out at 0.034 ± 0.009 µM.

As to B12, the affinity, expressed as Kd, was 0.0154 ± 0.0029 µM.

In turn, B13 displayed an equilibrium dissociation constant (Kd) of 0.0062 ± 0.0009 µM. B14 returned a Kd of about 0.11 µM. For B15, the equilibrium dissociation constant (Kd) stood at 0.026 ± 0.006 µM.

B16 came in with a Kd of 0.022 ± 0.004 µM.

Molecule B17 came in with a Kd of 0.0094 ± 0.0018 µM. In turn, B18 registered a dissociation constant (Kd) of 0.018 ± 0.004 µM. With B19, binding was characterised by a dissociation constant (Kd) of 0.0028 ± 0.0005 µM. With B20, the Kd worked out at 0.00168 ± 0.00016 µM. B21 yielded a Kd of 0.021 ± 0.008 µM. Under B22 stands 0.0158 ± 0.0011 µM. For the molecule B23, the dissociation constant Kd is 0.0038 ± 0.0006 µM.

B24: the Kd was determined as 0.00198 ± 0.0003 µM. B25: binding was put at a Kd of 0.0064 ± 0.0015 µM. The result for B26 reads 0.0162 ± 0.0027 µM. B27 gave an equilibrium dissociation constant (Kd) of 0.00198 ± 0.00025 µM. The result for B28 reads 0.0067 ± 0.0006 µM.

In turn, B29 came in with an equilibrium dissociation constant (Kd) of 0.0035 ± 0.0004 µM. Take B30: the Kd turned out to be 0.0098 ± 0.0018 µM. Consider B31, for which the Kd was about 0.12 µM. Regarding B32, the Kd is 0.044 ± 0.012 µM. B33 came in with a Kd of 0.0153 ± 0.0033 µM. B34 had a Kd of 0.0203 ± 0.0015 µM. B35 came in with a Kd of 0.0085 ± 0.0007 µM. Under B36 stands about 0.07 µM.
